The text below walks through data of patent US10078082B2, “Detection of free and protein-bound non-human gal-alpha(1-3)-gal epitope” (National University of Ireland, Galway, priority 2012, dated 2018).

For one data set, the system named is scFv A11. The experiment in a line: Competitive ELISA specificity study: inhibition of scFv binding to Gal-α-(1→3)-Gal-BSA by free sugars. The settings on record: highest concentration 1 mg/mL. On the set-up: species or system chicken. How it is done:
(§1) Each scFv was evaluated in a competitive ELISA format using free Gal-α-(1,3)-Gal as standard. Microtitre plate wells were coated and blocked as previously described. Standard solutions were prepared in PBS (pH 7.2), ranging in concentration from 2 μg/ml (5.84 μM) to 20 mg/ml (58.4 mM). For the assay, 50 μl of each standard and buffer blank were added to designated wells in triplicate, followed by 50 μl of a sub-saturating concentration (1 μg/ml) of the appropriate scFv, giving a final standard concentration in the assay of 1 μg/ml (2.92 μM) to 10 mg/ml (29.2 mM). The plate was incubated for 1 hour at 37° C. with shaking After washing, bound scFv was detected as previously described. The ratios of the OD for each standard versus the OD given by the blank (B/Bo) were plotted versus standard concentration and standard curve plotted using SigmaPlot (v11, Systat Software Inc). The detection limits were determined as the concentration corresponding to the mean response for zero standard minus three times the standard deviation (SD). Inhibition of scFv by a panel of free sugars. scFv binding to Gal-α-(1→3)-Gal-BSA was determined against a panel of 21 free form sugars; D-Cellibiose, Melibiose, D-Raffinose, Lactulose, Palatinose, β-Gentibiose, D+ Trehalose, D+ Turanose, L− Fructose, D+ Glucose, Sucrose, Galacto-N-biose, 4β-Galactobiose, gal-α(1-3)-gal-β-(1-4)-gal, gal-α(1-3)-gal-β-(1-4)-glc, gal-α(1-3)-gal-β-(1-4)-gal-all-3)-gal, Laminarbiose, β1-4-D-Xylobiose, N-Acetyl-D-glucoseamine (GlcNAc), Galactose, N-Acetyl-D-lactosamine (LacNAc), (sourced from Sigma Aldrich and Dextra, UK). Inhibitions were performed by serial dilutions of free sugars and a sub-saturating concentration scFv added to each dilution and pre-incubated for 60 minutes at 37° C., prior to performing ELISA against Gal-α-(1→3)-Gal-BSA as used throughout. The percent binding of the scFv was plotted against the […], and the 50% effective dose determined (ED50; dose of free sugar causing 50% displacement of the scFv).
(ELISA stands for enzyme-linked immunosorbent assay.)

The test system of a further data set is scFv G12. The description is as above. On the set-up: species or system chicken. To be noted: highest concentration 1 mg/mL. As for the experimental part:
as §1

The test system of a further data set is scFv A4. Described as above. To be noted: highest concentration 1 mg/mL. More on the design: species or system chicken. As for the experimental part:
as §1

Data set [1] is described as follows: scFv-based competitive ELISA, free Gal-α-(1→3)-Gal as standard, immobilized Gal-α-(1→3)-Gal-BSA. The settings on record: free Gal-α-(1→3)-Gal disaccharide standard; plates coated with Gal-α-(1→3)-Gal-BSA 10 μg/ml; FIG. 6; listed as G12. The format is binding. As for the experimental part: as §1, with “FIG. 6: Standard curves for competitive ELISA given by scFv clones G12, A4, and A11. Plates were coated with immobilized Gal-α-(1→3)-Gal-BSA [10 μg/ml] and incubated with 2.5 μg/ml of the scFvs in the presence of an increasing concentrations of free Gal-α-(1→3)-Gal. The error bars indicate the standard error of the mean of triplicate determinations. Each” for “Each”

Data set [2] is described as follows: Thermal denaturation monitored by far UV CD ellipticity. In kind it is physicochemical. How it is done:
(§2) Two types of experiments were performed: firstly, the near UV circular dichroism (CD) spectra of the scFvs in the absence and presence of 4 mM of both disaccharides have been compared. Secondly, the effect of the disaccharides on the thermal stability of the scFvs has been studied.
Samples were diluted in NaPi (10 mM)-NaCl (150 mM) pH 7.2 and either concentrated by ultrafiltration twice (for small amounts) or exhaustively dialyzed. CD spectra were acquired at 20° C. in a J-810 spectropolarimeter, equipped with a Peltier temperature control system, using a bandwidth of 1 nm, a scan rate of 20 nm/min and a response time of 4 s, collecting data every 0.2 nm and 3 accumulations for each spectrum. Near-UV spectra were registered at around 1.0 mg ml^−1 protein concentration in 1-cm path-length cells while far-UV spectra were recorded in 0.1 cm path-length quartz cells at a protein concentration of around 0.2 mg ml^−1. For all CD spectra, the corresponding buffer baseline was subtracted. […] Ellipticity changes were collected every 0.2° C. and spectra were collected every 10° C. The thermal denaturation profiles were fitted to a sigmoidal function using the equation:—
where Θ(T) represents the ellipticity at temperature T (Kelvin), ΘN the ellipticity of the native protein, n the number of transitions, ΔΘ1 the ellipticity increment of transition i, R the gas constant and Tmi and HDi the temperature at the transition midpoint (melting temperature) and the parameter which describes the cooperativity (slope) of the corresponding transition, respectively.
In the second set of experiments, the thermal stability of the scFvs in the absence and presence of the disaccharides was investigated. With this type of experiment, we were able to get: 1) the far UV CD spectra at increasing temperatures, which gave information on changes in the secondary structure of the proteins upon heating and 2) the profile of the change in ellipticity at a certain wavelength, also with increasing temperatures, that allowed the calculation of the temperature of transition (Tm). Direct comparison of the Tm in the absence and presence of sugar provided information about the effect of the sugar on the scFvs, a thermal stabilisation (i.e. an increase in the Tm in the presence of the sugar) being indicative of interaction.

Data set [3] is described as follows: NGC microarray specificity analysis (over 50 structures). To be noted: FIG. 8. In kind it is binding. An excerpt: FIG. 8: Comparison of the specificity of selected scFv fragments A4, A11 and G12 against a panel of related NGCs compared directly to the specificity binding pattern of the lectin GS-1-B4, considered as highly specific for α-Gal residues.
The spectacular specificity of the scFvs has also been determined by analysis on an NGC microarray containing over 50 different structures. […] ScFv-based competitive ELISA. Competitive ELISAs were established with each of the three scFvs examined using as standard the free Gal-α-(1→3)-Gal disaccharide within the concentration range 0.001 to 10000 μg/ml (2.93 nM to 29.3 mM). […] A panel of 21 related sugars were tested in the scFv-based competitive assays (Table 1). […] All three scFvs were more reactive to the disaccharide than Gal-α-(1,3)-Gal-containing trisaccharides, as shown by lower inhibitory activity of the trisaccharides and supporting the results obtained in the direct ELISA.

The nature of data set [4]: Near UV circular dichroism interaction study with disaccharides. The format is binding. To be noted: pH 7.2, 20° C. How it is done: The scFvs A4, A11 and G12 were used to check their interaction with Galα(1,3)Galβ1-OMe (Carbosynth) and with melibiose, the latter as negative control.
as §2
Samples were diluted in NaPi (10 mM)-NaCl (150 mM) pH 7.2 and either concentrated by ultrafiltration twice (for small amounts) or exhaustively dialyzed. CD spectra were acquired at 20° C. in a J-810 spectropolarimeter, equipped with a Peltier temperature control system, using a bandwidth of 1 nm, a scan rate of 20 nm/min and a response time of 4 s, collecting data every 0.2 nm and 3 accumulations for each spectrum. Near-UV spectra were registered at around 1.0 mg ml^−1 protein concentration in 1-cm path-length cells while far-UV spectra were recorded in 0.1 cm path-length quartz cells at a protein concentration of around 0.2 mg ml^−1. For all CD spectra, the corresponding buffer baseline was subtracted. Thermal stability was evaluated by measuring ellipticity changes at 208 nm while increasing temperature from 20 to 90° C., with a constant rate of 40° C./h. Ellipticity changes were collected every 0.2° C. and spectra were collected every 10° C. The thermal denaturation profiles were fitted to a sigmoidal function using the equation:—
Background: Circular dichroism is the unequal absorption of left and right circularly polarised light.

The mark [5] stands for this setting: +4 mM Galα(1,3)Galβ1-OMe, λ 208.
Where [6] appears, read: +4 mM Galα(1,3)Galβ1-OMe, λ 218.
Setting [7] is: in the presence of 4 mM Galα(1,3)Galβ1-OMe, 208 nm.

Values joined by “and” are separate entries in the source; they are usually repeats but may differ in a detail not shown here. Equal entries are not always repeated.

For `OC[C@H]1O[C@H](O[C@H]2[C@@H](O)[C@@H](CO)O[C@@H](O[C@@H]3[C@H](O)[C@@H](O)[C@@H](O[C@H]4[C@@H](O)[C@@H](CO)OC(O)[C@@H]4O)O[C@@H]3CO)[C@@H]2O)[C@H](O)[C@@H](O)[C@H]1O` (stereo partly drawn) [gal-α(1,3)-gal-β-(1,4)-gal-α-(1,3)-gal], in the data set with scFv A11, the “% Maximum inhibition at Max Conc A11” value worked out at 78.41%. Further, the “% Maximum inhibition at Max Conc G12” value in the data set on scFv G12 was found to be 73.54%. The “% Maximum inhibition at Max Conc A4” value with scFv A4 is 73.48%.

As for `OC[C@H]1O[C@H](O[C@H]2[C@@H](O)[C@@H](CO)O[C@@H](O[C@H]3[C@H](O)[C@@H](O)C(O)O[C@@H]3CO)[C@@H]2O)[C@H](O)[C@@H](O)[C@H]1O` (stereo partly drawn) [gal-α(1,3)-gal-β-(1,4)-glc], in the data set with scFv A11, the “% Maximum inhibition at Max Conc A11” value was 73.88%. The “% Maximum inhibition at Max Conc G12” value in the data set on scFv G12 is on record as 83.03%. In the data set on scFv A4, the “% Maximum inhibition at Max Conc A4” value came out at 66.20%.

With `OCC1OC(OC2C(O)C(CO)OC(OC3C(CO)OC(O)C(O)C3O)C2O)C(O)C(O)C1O` (stereo not drawn) [gal-α-(1,3)-gal-β-(1,4)-gal], the “% Maximum inhibition at Max Conc A11” value in the data set with scFv A11 is 76.83%. In the data set on scFv G12, the “% Maximum inhibition at Max Conc G12” value is 64.43%. Also, the “% Maximum inhibition at Max Conc A4” value with scFv A4 is given as 68.18%.

For “gal-α(1,3)-gal-BSA [gal-α(1,3)-gal-BSA (NGC)]”, the “% Maximum inhibition at Max Conc A11” value in the data set on scFv A11 was 51.06%. In the data set with scFv G12, the “% Maximum inhibition at Max Conc G12” value is on record as 33.93%. The “% Maximum inhibition at Max Conc A4” value in the data set on scFv A4 is reported as 36.4%.

B1: scFv G12: chicken anti-Gal-α-(1→3)-Gal single chain antibody fragment, Seq Id No. 3; clone F1 has the same sequence (protein)
scFv: QAALTQPSSVSANPGETVKITCSGGSYHYGWYQQKSPGSAPVTVIYSNNQRPSGIPSRFSGSTSDSTGTLTITGVQADDEAVYFCGSYDSSNTYAGIFGAGTTLTVLGQSSRSSSGGGSSGGGGSAVTLDESGGGFQTPGGALSLVCKASGFTFSSYSMQWVRQAPGKGLEFVAGIGNSDRYTYFGPAVKGRATISRDNGQSTLRLQLNNLRAEDTATYFCARSGDSGNGCTHPWCSADNINAWGHGTEVIVSSTSGQAGQ
modifications: Synthetic protein sequence for scFv-G12 antibody fragment for detecting non-human Gal-alpha(1-3)-Gal
In general, Tm refers to the temperature at the midpoint of the melting transition. For the molecule B1, in data set [1], the ED50 was 158 μg/ml and 0.46 mM. Further, the HD in data set [2] (setting [5]) worked out at 71 ± 5 kcal/mol; in data set [2] (setting [6]), 137 ± 24 kcal/mol; in data set [2] (+4 mM melibiose, λ 218), 116 ± 16 kcal/mol; in data set [2] (Pure scFv, λ 208) it was 64 ± 4 kcal/mol; in data set [2] (Pure scFv, λ 218), 116 ± 21 kcal/mol. Besides, the Tm came out at 73.5 ± 0.3 °C in data set [2] (setting [5]); 74.3 ± 0.4 °C in data set [2] (setting [6]); 66.5 ± 0.3 °C in data set [2] (+4 mM melibiose, λ 218); 64.7 ± 0.2 °C in data set [2] (Pure scFv, λ 208); 66.4 ± 0.4 °C in data set [2] (Pure scFv, λ 218). In addition, the “Change in cooperativity (HD)” value in data set [2] (setting [7]) is given as “+6.8 Kcal/mol”. Moreover, the “Stabilisation (increase in Tm)” value in data set [2] (setting [7]) is 8.8 °C. Further, the “Specificity for the Gal-α-(1→3)-Gal epitope compared with GS-1-B4” value in data set [3] is given as “much higher specificity”. Further, the “Change of near UV CD spectrum” value in data set [4] (4 mM Galα(1,3)Galβ1-OMe) was “a clear change was detected”; in data set [4] (4 mM melibiose (negative control)), “did not cause any significant changes”.
